Data reported in paper PMC314469, “Protein Interaction Networks by Proteome Peptide Scanning” (PLoS Biology, 2004).

T1: Rvs167 SH3 (RV167_YEAST), P39743
T1 chain: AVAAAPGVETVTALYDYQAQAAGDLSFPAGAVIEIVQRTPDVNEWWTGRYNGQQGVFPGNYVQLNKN

T2: Yfr024 SH3 (LSB3_YEAST), P43603
T2 chain: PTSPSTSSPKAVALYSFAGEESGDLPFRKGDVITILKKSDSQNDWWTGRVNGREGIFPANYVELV

T3: Yhr016c SH3 (YSC84_YEAST), P32793
T3 chain: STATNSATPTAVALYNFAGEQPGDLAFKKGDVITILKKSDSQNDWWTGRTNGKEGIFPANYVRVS

T4: Boi1 SH3 (BOI1_YEAST), P38041
T4 chain: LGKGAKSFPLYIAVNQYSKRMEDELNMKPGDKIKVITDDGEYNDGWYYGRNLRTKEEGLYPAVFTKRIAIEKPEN

T5: Boi2 SH3 (BOI2_YEAST), P39969
T5 chain: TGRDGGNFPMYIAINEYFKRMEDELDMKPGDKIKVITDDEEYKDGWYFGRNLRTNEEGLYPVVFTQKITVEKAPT


Molecular target: T1, Rvs167 SH3 (RV167_YEAST), P39743
Test: SPOT array

Binder | normalised SPOT signal, Boehringer light units (BLU); mean over the file's lines of this peptide
APTPPAPSRSEKLH [YBR108W 727-740] | 49.2
AKQPKEPKKRTTRR [YBR089C-A 7-20] | 130
ALRPTPPERGSFPL [YLL018C-A 11-24] | 448
AMNPESPTRDQIFL [YMR012W 411-424] | 63
ALEPGIPDRFSPEM [YLR070C 92-105] | 56.6
AMTPFSPRKSHINN [YNL269W 98-111] | 422
AQRPRGPQRGKDIK [YNL064C 104-117] | 78.6
AKSPLLPFKLLSDR [YCL073C 330-343] | 45.1
ALVPFAPFKLLKDR [YHL047C 340-353] | 136
APAPLDPFKTGGNN [YBL007C 849-862] | 47.4
APLPPQPRKHDKTP [YBL105C 587-600] | 52.6
ALKPKTPSKAPRKR [YBR060C 65-78] | 300
ALRPTGPDRGDGFD [YNL139C 1465-1478] | 59.8
AMPPTLPHRDWKDY [YGL153W 84-97] | 2620
ANLPNRPKRGEGIN [YMR047C 1035-1048] | 39.8

Molecular target: T2, Yfr024 SH3 (LSB3_YEAST), P43603
Test: SPOT array

Binder | normalised SPOT signal, Boehringer light units (BLU); mean over the file's lines of this peptide
APTPPAPSRSEKLH [YBR108W 727-740] | 4690
AKQPKEPKKRTTRR [YBR089C-A 7-20] | 854
ALRPTPPERGSFPL [YLL018C-A 11-24] | 1960
AMNPESPTRDQIFL [YMR012W 411-424] | 648
ALEPGIPDRFSPEM [YLR070C 92-105] | 96.8
AMTPFSPRKSHINN [YNL269W 98-111] | 1860
AQRPRGPQRGKDIK [YNL064C 104-117] | 576
AKSPLLPFKLLSDR [YCL073C 330-343] | 4310
ALVPFAPFKLLKDR [YHL047C 340-353] | 121
APAPLDPFKTGGNN [YBL007C 849-862] | 35.4
APLPPQPRKHDKTP [YBL105C 587-600] | 1150
ALKPKTPSKAPRKR [YBR060C 65-78] | 2060
ALRPTGPDRGDGFD [YNL139C 1465-1478] | 145
AMPPTLPHRDWKDY [YGL153W 84-97] | 14600
ANLPNRPKRGEGIN [YMR047C 1035-1048] | 6370

Molecular target: T3, Yhr016c SH3 (YSC84_YEAST), P32793
Test: SPOT array

Binder | normalised SPOT signal, Boehringer light units (BLU); mean over the file's lines of this peptide
APTPPAPSRSEKLH [YBR108W 727-740] | 448
AKQPKEPKKRTTRR [YBR089C-A 7-20] | 78
ALRPTPPERGSFPL [YLL018C-A 11-24] | 917
AMNPESPTRDQIFL [YMR012W 411-424] | 125
ALEPGIPDRFSPEM [YLR070C 92-105] | 30.2
AMTPFSPRKSHINN [YNL269W 98-111] | 256
AQRPRGPQRGKDIK [YNL064C 104-117] | 112
AKSPLLPFKLLSDR [YCL073C 330-343] | 229
ALVPFAPFKLLKDR [YHL047C 340-353] | 123
APAPLDPFKTGGNN [YBL007C 849-862] | 22.8
APLPPQPRKHDKTP [YBL105C 587-600] | 372
ALKPKTPSKAPRKR [YBR060C 65-78] | 341
ALRPTGPDRGDGFD [YNL139C 1465-1478] | 179
AMPPTLPHRDWKDY [YGL153W 84-97] | 25500
ANLPNRPKRGEGIN [YMR047C 1035-1048] | 1230

Molecular target: T4, Boi1 SH3 (BOI1_YEAST), P38041
Test: SPOT array

Binder | normalised SPOT signal, Boehringer light units (BLU); mean over the file's lines of this peptide
APTPPAPSRSEKLH [YBR108W 727-740] | 152
AKQPKEPKKRTTRR [YBR089C-A 7-20] | 196
ALRPTPPERGSFPL [YLL018C-A 11-24] | 230
AMNPESPTRDQIFL [YMR012W 411-424] | 34.6
ALEPGIPDRFSPEM [YLR070C 92-105] | 102
AMTPFSPRKSHINN [YNL269W 98-111] | 642
AQRPRGPQRGKDIK [YNL064C 104-117] | 119
AKSPLLPFKLLSDR [YCL073C 330-343] | 84.8
ALVPFAPFKLLKDR [YHL047C 340-353] | 16.7
APAPLDPFKTGGNN [YBL007C 849-862] | 123
APLPPQPRKHDKTP [YBL105C 587-600] | 217
ALKPKTPSKAPRKR [YBR060C 65-78] | 247
ALRPTGPDRGDGFD [YNL139C 1465-1478] | 132
AMPPTLPHRDWKDY [YGL153W 84-97] | 113
ANLPNRPKRGEGIN [YMR047C 1035-1048] | 145

Molecular target: T5, Boi2 SH3 (BOI2_YEAST), P39969
Test: SPOT array

Binder | normalised SPOT signal, Boehringer light units (BLU); mean over the file's lines of this peptide
APTPPAPSRSEKLH [YBR108W 727-740] | 16.8
AKQPKEPKKRTTRR [YBR089C-A 7-20] | 105
ALRPTPPERGSFPL [YLL018C-A 11-24] | 27.5
AMNPESPTRDQIFL [YMR012W 411-424] | 39.3
ALEPGIPDRFSPEM [YLR070C 92-105] | 31.2
AMTPFSPRKSHINN [YNL269W 98-111] | 884
AQRPRGPQRGKDIK [YNL064C 104-117] | 73.2
AKSPLLPFKLLSDR [YCL073C 330-343] | 46.2
ALVPFAPFKLLKDR [YHL047C 340-353] | 40.5
APAPLDPFKTGGNN [YBL007C 849-862] | 68.1
APLPPQPRKHDKTP [YBL105C 587-600] | 57.8
ALKPKTPSKAPRKR [YBR060C 65-78] | 103
ALRPTGPDRGDGFD [YNL139C 1465-1478] | 8.2
AMPPTLPHRDWKDY [YGL153W 84-97] | 39.4
ANLPNRPKRGEGIN [YMR047C 1035-1048] | 27.9
